The nature of this series: soluble on expression in E. coli; label from the status in PepcDB or PDB records.
With “SEAVGVAPAPAGVPEKKLLEVKESRKAAPAAPSTSMAAKWAMKKKLVGGDAGYVLEDVPHLTDYLPELPTYPNPLQDNPAYSVVKQYFVNTDDTVTQKIVVHKTSARGTHFRRAGPRQRVYFQSDEVNAAIVTCGGLCPGLNTVIRELVCGLYDMYGVTSVVGIEGGYKGFYSRNTVALTPKSVNDIHKRGGTVLGTSRGGHDTGKIVDSIKDRGINQVYIIGGDGTQKGASVIYEEVRRRGLKCSVVGVPKTIDNDIAVIDKSFGFDTAVEEAQRAINAAHVEAESAENGIGVVKLMGRNSGFIAMYATLASRDVDCCLIPESPFYLEGKGGLLEFIEKRLKDNGHMVIVVAEGAGQDLIAKSMNFVDTQDASGNKLLLDVGLWLSQKIKDHFKKKRNFPITLKYIDPTYMIRAVRSNASDNVYCTLLAHSALHGAMAGYTGFTVAPVNGRHAYIPFYRITEKQNKVVITDRMWARVLCSTNQPCFLSHEDVEHLKHDDDEHHLHNTQLLEGESSPVKDSSKCNGTAAPV”, the “soluble on expression in E. coli” value was “soluble”.

Take “MVVRTWRSMQERYNLIGSKCKTCGTVYFPARSVCPECRRKGELEDYKLNGKGKVYTYSVVYAAPKDFEKQSPYVIGIVELEEGTKITSQIDCEPEEVKIGMPVEATFRKIREDGCDGVISYGYKFVPTEQ”: the “soluble on expression in E. coli” value is “not soluble”.

For “MRKLFLLAIVLCVWSVVADAQESERRYIEVTGSSEIEVVPDEIHLLIQIKEYWKEEFVPKSKPEDYKTKVPLEWIEKDLRRVLSRAGISDEAIRVQEIGDYWRQKGKEFLIGKQLDIRFTDFEKINAVIKKIDTKGIESMRIGELKHKDLPNYRKQGKIEALKAAREKASYLVEAMGQKLGEVIRIVEPASSYVSPYSLYQAQSNVSMGTAATEQYRVITLRYEMTARFAIELEHHHHHH”, the “soluble on expression in E. coli” value is reported as “soluble”.

Take “MSYVAEKKKIANVLSNRYASAELTELWSPEAKILLERQLWIAVMKAQKNLGVDIPTEAISAYEAVIDRIDLDSIAQREKITRHDVKARIEEFNALAGYEHIHKGMTSRDLTENVEQLQIYRSLEMMRNKSVSVAAAIAQHAAQYQSLVMAGRSHNVAAQATTLGKRFASAAEEILVAIDRVEDLLSRYPLRGIKGPMGTAQDMLDLVGGDESKLAALETQIADHLGIARVFDSVGQVYPRSLDFDAVSALVQLGAGPSSLAHTIRLMAGNETVTEGFKEGQVGSSAMPHKMNARSCERVGGLQVILRGYLTMVADLSGQQWNEGDVFCSVIRRVALPDAFFALDGMYETFLTVLAEFGAFPAMIDRELERYLPFLATTRILMAAVRVGVGRETAHEVIKENAVAVALNMRENGGEQDLIDRLAADERLPMTREQLDEALADRHAFIGAAESQVARVVDRVNDLVRRYPAAAQYTPGDIL”: the “soluble on expression in E. coli” value is “not soluble”.

Take “MDYMERPKLGLIVREPYASLIVDGRKVWEIRRRKTRHRGPLGIVSGGRLIGQADLVGVEGPFSVEELLAHQEKHLAEEAFLRAYAKDEPLYAWVLENAFRYEKPLHVPRRPGRVMFVDLSEVRW”: the “soluble on expression in E. coli” value is “soluble”.

Consider “MSLKMTNNTVLITGGSAGIGLELAKRLLELGNEVIICGRSEARLAEAKQQLPNIHTKQCDVADRSQREALYEWALKEYPNLNVLVNNAGIQKEIDFKKGTEELFVDGDEIELNFQAPVHLSALFTPHLMKQPEAAIVQVTSGLAFNPLAVYPVYCATKAALHSFSLTLRHHVRDTSVEVIEMAPPMVDTGLNQKSRDKQGLTYRGISSEEYVQYFLDGLKEGKQEITNERVEGLRDATRADYDRLFEQMNTQEGHHHHHH”, for which the “soluble on expression in E. coli” value was “soluble”.

Take “MTIEHGIWPGKIDIYEKNFNTGQKCMRNPFQNPFPESDTARHSIWEMLVSRDIDAFLAADWSMVADDFVEESFIGVDGRRETNPDKWRLTFPSLAVYRDEWLRQARDFAGQSFAEDPREAIFTTTTLEDIEVDGELALARKKFDGGLKKADGTFDVMKWQTVYYCRLHRGRWKICGFTGYLPNPMGSN”: the “soluble on expression in E. coli” value was “soluble”.

Turning to “MGSDKIHHHHHHTEDTVIKVSVLRGPSVIAFADWLENPPIIDNKKVQVKVVDSPDLAQALLIKQETDIAVLPMINAANLYNKGIKIKLAGCPIWGTLYLVEKTPLKEPALYVFGNGTTPDILTRYYLGRQRLDYPLNYAFNTAGEITQGILAGKVNRAVLGEPFLSIALRKDSSLRITADLNHLTDNDTLGFAQTAVVYTPTMEKYRIAFEDALRASCQKAVRYPKETIHSLEEHGIFAQGALTPKSIERCKIYYLSAIEAKDAVMGFLRLIEQYEPKAVGGRLPDAGFIPEKQ”, the “soluble on expression in E. coli” value was “not soluble”.

Take “MGSDKIHHHHHHMEVASATNNPVQNPAGALAAPGNDAASLKNEFMTLMIAQIKNQDPTKPLNSAEYISQLAQFSQVESLEGMRKNQSNQMIMMENLGIVQSASLIGKNAMVPVSEFKLDGETVEGKVYLENAVEALDIEIVNSEGQVVHTMQLGAQAVGDIRFAIDPDELGLEKGQYEIKAKATLGENSLVAPTYIKAPIERIHFSSASGMMMAEMGHGVGVISVLNISEVS”: the “soluble on expression in E. coli” value is reported as “not soluble”.

For the sequence “TESPADSFLKVELELNLKLSNLVFQDPVQYVYNPLVYAWAPHENYVQTYCKSKKEVLFLGMNPGPFGMAQTGVPFGEVNHVRDWLQIEGPVSKPEVEHPKRRIRGFECPQSEVSGARFWSLFKSLCGQPETFFKHCFVHNHCPLIFMNHSGKNLTPTDLPKAQRDTLLEICDEALCQAVRVLGVKLVIGVGRFSEQRARKALMAEGIDVTVKGIMHPSPRNPQANKGWEGIVRGQLLELGVLSLLTG”, the “soluble on expression in E. coli” value is reported as “soluble”.

For the sequence “TPDFTWKTSLNFSANKNKIVELHEELKEFVYGPTSFSSSYAMKLVKGGSIGDIYGKAFIRDEAGSIVYGTDGDYKGLPLVEGDGNTVKVGNANPDFMLGWNHSFSYKGFSLYFLLDWRYGGEVLSQTQAEMDLYGVSKATAQARDKGYVSLEGQQISDVKGFYKNVVGGRAGVTEYYMYDATNLRLREISLSYSFPRKWVQKTNCLKDLQLSFVARNLCFLYKKAPFDPDLVLSTGNDNQGIEVFGMPTTRSLGFTLTCEF”, the “soluble on expression in E. coli” value is reported as “not soluble”.

Take “MSLEAGAGAPLARYAAWRRAGDFIFLSGIIPVNPLTGTIVNGFQDVPEPVRELLGATGEFSTDAKQGPILAQSWYVLESIRRTVASAGGQMSDVIKLVQYFRNLDHFPYYSRVRKLFYPDQPPVSTVVQVSEMLPDATVLIEVEATVWLPPSFNSEAEGHHHHHH”: the “soluble on expression in E. coli” value is recorded as “soluble”.

Turning to “MSEVLITGLRTRAVNVPLAYPVHTAVGTVGTAPLVLIDLATSAGVVGHSYLFAYTPVALKSLKQLLDDMAAMIVNEPLAPVSLEAMLAKRFCLAGYTGLIRMAAAGIDMAAWDALGKVHETPLVKLLGANARPVQAYDSHSLDGVKLATERAVTAAELGFRAVKTRIGYPALDQDLAVVRSIRQAVGDDFGIMVDYNQSLDVPAAIKRSQALQQEGVTWIEEPTLQHDYEGHQRIQSKLNVPVQMGENWLGPEEMFKALSIGACRLAMPDAMKIGGVTGWIRASALAQQFGIPMSSHLFQEISAHLLAATPTAHWLERLDLAGSVIEPTLTFEGGNAVIPDLPGVGIIWREKEIGKYLV”, the “soluble on expression in E. coli” value is “soluble”.

As to “MGSDKIHHHHHHMSFDAMNTTLSLNTSAGSQALTVRDPWALVPSLGDLNAYIAAVNRLPMLTLEEEQSLGQRLRDEHDLEAAGRLVLSHLRLVVSVSRQYLGYGLPHGDLIQEGNVGLMKAVKRFDPSQGVRLVSYALHWIKAEIHEYVLRNWRMVKLATTKAQRKLFFNLRSMKQGFKGDATDSDLHRSTLTDAEIDIVASELKVKREEVIEMETRLSGGDVALDPQTDDGDESYAPIAYLADDRHEPTRVLDAQRRDALAGDGIGEALDVLDARSRRIVEERWLKVNDNGSGGMTLHELAAEYGVSAERIRQIEVAAMKKMRKALAAYA”, the “soluble on expression in E. coli” value is on record as “not soluble”.

On to “MAGVKAYELRTKSKEQLASQLVDLKKELAELKVQKLSRPSLPKIKTVRKSIACVLTVINEQQREAVRQLYKGKKYQPKDLRAKKTRALRRALTKFEASQVTEKQRKKQIAFPQRKYAIKA”, for which the “soluble on expression in E. coli” value is given as “soluble”.

Turning to “MPKIYTKTGDKGFSSTFTGERRPKDDQVFEAVGTTDELSSAIGFALELVTEKGHTFAEELQKIQCTLQDVGSALATPCSSAREAHLKYTTFKAGPILELEQWIDKYTSQLPPLTAFILPSGGKISSALHFCRAVCRRAERRVVPLVQMGETDANVAKFLNRLSDYLFTLARYAAMKEGNQEKIYMKNDPSAESEGL”, the “soluble on expression in E. coli” value is recorded as “soluble”.

Source of the values: the DeepSol protein solubility set.
